US20200095333A1 (published 2020)
Numbering of substitutions follows the chain as printed. Names may count otherwise.

Experiments:
soluble CD16A(158F) = molecular target: T1, soluble CD16A(158F) (human, UniProt P08637 17-208); experiment: SPR, HSA immobilised, ABD-DART then 200 nM CD32B and 200 nM CD16A(F158)
T1 construct: extracellular domain; also called CD16A(F158); sCD16A

[1] = molecular target: T2, sCD16A (soluble CD16A, FcgammaRIIIA) (human, UniProt P08637 17-208); experiment: dual ELISA, CD16 coat, biotinylated sCD32B detection
T2 construct: extracellular domain; given only as soluble; used immobilised (SPR), coated, or biotin/HRP-labelled as probe (ELISA); also called CD16 antigen; sCD16A-Biotin

[2] = molecular target: T3, sCD32B (soluble CD32B, FcgammaRIIB) (human, UniProt P31994 43-217); experiment: as above
T3 construct: extracellular domain; also called soluble CD32B ectodomain
T3 sequence: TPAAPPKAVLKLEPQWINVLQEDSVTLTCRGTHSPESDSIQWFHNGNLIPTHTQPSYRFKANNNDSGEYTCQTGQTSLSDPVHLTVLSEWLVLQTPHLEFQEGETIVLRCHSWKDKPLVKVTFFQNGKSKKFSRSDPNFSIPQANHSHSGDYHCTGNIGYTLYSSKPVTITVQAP

[3] = molecular target: T4, human serum albumin (HSA) (human, UniProt P02768 25-609); experiment: ELISA, HSA coat, biotinylated sCD32B detection
T4 construct: also called human albumin; HRP-human albumin

[4] = molecular target: T2, sCD16A (soluble CD16A, FcgammaRIIIA); experiment: sandwich ELISA, CD32B coat, HRP-CD16 probe
[5] = molecular target: T3, sCD32B (soluble CD32B, FcgammaRIIB); experiment: sandwich ELISA, CD32B coat, HRP-CD16 probe
[6] = molecular target: T4, human serum albumin (HSA); experiment: HSA binding class (+ = 0.1-0.4)
[7] = molecular target: T4, human serum albumin (HSA); experiment: deimmunized ABD ELISA (FIG. 57)
[8] = molecular target: T4, human serum albumin (HSA); experiment: HSA binding class (+++ = 0.7-1.0)
[9] = molecular target: T4, human serum albumin (HSA); experiment: albumin binding of ABD variants
[10] = molecular target: T2, sCD16A (soluble CD16A, FcgammaRIIIA); experiment: sandwich ELISA, CD32B coat, CD16A probe
[11] = molecular target: T3, sCD32B (soluble CD32B, FcgammaRIIB); experiment: sandwich ELISA, CD32B coat, CD16A probe
[12] = molecular target: T2, sCD16A (soluble CD16A, FcgammaRIIIA); experiment: mCD32-hCD16A binding ELISA
mCD32B (murine CD32B) = molecular target: T5, mCD32B (murine CD32B) (murine, UniProt P08101 30-210); experiment: mCD32-hCD16A binding ELISA
T5 sequence: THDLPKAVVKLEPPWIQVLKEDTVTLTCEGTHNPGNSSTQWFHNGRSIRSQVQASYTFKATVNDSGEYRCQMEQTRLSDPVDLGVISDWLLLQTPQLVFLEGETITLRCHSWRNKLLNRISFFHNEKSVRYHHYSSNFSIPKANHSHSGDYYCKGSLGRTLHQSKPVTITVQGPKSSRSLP

[13] = molecular target: T2, sCD16A (soluble CD16A, FcgammaRIIIA); experiment: SPR (BIAcore), receptor immobilised, diabody 6.25-200 nM

T2 sequence (P08637 17-208): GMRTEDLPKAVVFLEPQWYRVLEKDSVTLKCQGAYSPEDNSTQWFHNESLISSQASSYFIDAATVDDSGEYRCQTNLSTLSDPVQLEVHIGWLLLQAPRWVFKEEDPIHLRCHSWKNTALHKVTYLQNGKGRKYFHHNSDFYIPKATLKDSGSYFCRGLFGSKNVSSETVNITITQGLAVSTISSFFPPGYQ
T1 sequence (P08637 17-208): as above

B1: hCD16-hCD32B ABD-DART (bispecific antibody)
chain 1: DIVMTQSPDSLAVSLGERATINCKASQSVDFDGDSFMNWYQQKPGQPPKLLIYTTSNLESGVPDRFSGSGSGTDFTLTISSLQAEDVAVYYCQQSNEDPYTFGQGTKLEIKGGGSGGGGQVQLVQSGAEVKKPGASVKVSCKASGYTFTNYWIHWVRQAPGQGLEWIGVIDPSDTYPNYNKKFKGRVTMTVVVSTSTAYMELRSLRSDDTAVYYCARNGDSDYYSGMDYWGQGTTVTVSSGGCGGGKVAALKEKVAALKEKVAALKEKVAALKEGGGNS
chain 2: EIVLTQSPDFQSVTPKEKVTFTCRTSQSIGTNIHWYQQKPDQSPKLLIKEVSESISGVPSRFSGSGSGTDFTLTINSLEAEDAATYYCQQSNTWPFTFGGGTKVEIKGGGSGGGGQVTLRESGPALVKPTQTLTLTCTFSGFSLSTSGMGVGWIRQPPGKALEWLAHIWWDDDKRYNPALKSRLTISKDTSKNQVVLTMTNMDPVDTATYYCAQINPAWFAYWGQGTLVTVSSGGCGGGEVAALEKEVAALEKEVAALEKEVAALEKGGGNSLAEAKVLANRELDKYGVSDYYKNLINNAKTVEGVKALIDEILAALP
notes: also called hCD16-hCD32B EK ABD-DART; DART ABD fusion
B1: binds (soluble CD16A(158F)); binds [1]; binds [2]. B1: binds [3].

B2: product of co-expression of constructs 7 and 8 (pMGX0677+pMGX0678), tetrameric IgG-like diabody (bispecific antibody)
chain 1: EIVLTQSPDFQSVTPKEKVTFTCRTSQSIGTNIHWYQQKPDQSPKLLIKEVSESISGVPSRFSGSGSGTDFTLTINSLEAEDAATYYCQQSNTWPFTFGGGTKVEIKGGGSGGGGQVTLRESGPALVKPTQTLTLTCTFSGFSLSTSGMGVGWIRQPPGKALEWLAHIWWDDDKRYNPALKSRLTISKDTSKNQVVLTMTNMDPVDTATYYCAQINPAWFAYWGQGTLVTVSSLGGCFNRGEC
chain 2: not shown
B2: binds [4]; binds [5].

LAEAKVLANRELDKYGVSDYYKNLADNAKTAEGVKALIDEILAALP (other, also called 65A/66D/71A) [ABD I65A/N66D/V71A] was tested, and the HSA binding [6] was 0.1 to 0.4.

LAEAKVLANRELDKYGVSDYYKNAANNAKTVEGVKALIAEILAALP (other) [variant ABD L64A, I65A and D79A]: binds [7].

In the case of LAEAKVLANRELDKYGVSDYYKNLIDNAKTVEGVKALIDEILAALP (other) [ABD N66D], the HSA binding [8] is reported as 0.7 to 1.

LAEAKVLANRELDKYGVSDYYKNLIENAKTVEGVKALIDEILAALP (other) [ABD N66E] showed an HSA binding [8] of 0.7 to 1.

LAEAKVLANRELDKYGVSDYYKNGIDNAKTAEGVKALIDEILAALP (other, also called 64G/66D/71A) [ABD L64G/N66D/V71A] gave an HSA binding [6] of 0.1 to 0.4.

LAEAKVLANRELDKYGVSDYYKNLISNAKSVEGVKALIAEILAALP (other) [variant ABD N66S, T70S and D79A]: binds [7].

Binder LAEAKVLANRELDKYGVSDYYKNAIDNAKTAEGVKALIDEILAALP (other, also called 64A/66D/71A) [ABD L64A/N66D/V71A] has an HSA binding [6] of 0.1 to 0.4.

LAEAKVLANRELDKYGVSDYYKNLIDNAKSAEGVKALIDEILAALP (other) [ABD N66D/T70S/V71A (ABD (DSA))]: binds [9].

B3: product of constructs 1 and 9 (pMGX0669+pMGX0719) (bispecific antibody)
chain 1: EIVLTQSPDFQSVTPKEKVTFTCRTSQSIGTNIHWYQQKPDQSPKLLIKEVSESISGVPSRFSGSGSGTDFTLTINSLEAEDAATYYCQQSNTWPFTFGGGTKVEIKGGGSGGGGQVTLRESGPALVKPTQTLTLTCTFSGFSLSTSGMGVGWIRQPPGKALEWLAHIWWDDDKRYNPALKSRLTISKDTSKNQVVLTMTNMDPVDTATYYCAQINPAWFAYWGQGTLVTVSSLGGC
chain 2: not shown
notes: hinge-Fc at the N-terminus of the heavier chain; also called constructs 9+1; copies: 2 + 2
B3: binds [4]; binds [5].

B4: product of constructs 1 and 10 (pMGX0669+pMGX0718) (bispecific antibody)
chain 1: B3 chain 1
chain 2: not shown
notes: Fc at the N-terminus of the heavier chain; also called constructs 10+1; copies: 2 + 2
B4: binds [4]; binds [5].

B5: product of constructs 11 and 12 (bispecific antibody)
chain 1: not shown
chain 2: DIVMTQSPDSLAVSLGERATINCKASQSVDFDGDSFMNWYQQKPGQPPKLLIYTTSNLESGVPDRFSGSGSGTDFTLTISSLQAEDVAVYYCQQSNEDPYTFGQGTKLEIKGGGSGGGGQVQLVQSGAEVKKPGASVKVSCKASGYTFTNYWIHWVRQAPGQCLEWIGVIDPSDTYPNYNKKFKGRVTMTVVVSTSTAYMELRSLRSDDTAVYYCARNGDSDYYSGMDYWGQGTTVTVSSFNRGEC
notes: C-terminal hinge-Fc; engineered cysteines G105C (2B6 VL) and G44C (2B6 VH); copies: 2 + 2
B5: binds [4]; binds [5].

B6: product of constructs 15 and 16 (pMGX0752+pMGX0753) (bispecific antibody)
chain 1: EIVLTQSPDFQSVTPKEKVTFTCRTSQSIGTNIHWYQQKPDQSPKLLIKEVSESISGVPSRFSGSGSGTDFTLTINSLEAEDAATYYCQQSNTWPFTFGGGTKVEIKGGGSGGGGQVTLRESGPALVKPTQTLTLTCTFSGFSLSTSGMGVGWIRQPPGKALEWLAHIWWDDDKRYNPALKSRLTISKDTSKNQVVLTMTNMDPVDTATYYCAQINPAWFAYWGQGTLVTVSSFNRGEC
chain 2: B5 chain 2 with C163G, F241V, N242E, R243P, G244K, E245S
notes: Hu2B6VL-Hu3G8VH-FNRGEC and Hu3G8VL-Hu2B6VH-VEPKSC; also called construct 15/16 combination
B6: binds [10]; binds [11].

B7: Ig-like tetravalent DART (2.4G2-3G8-hKappa / 3G8-2.4G2-hG1) (bispecific antibody)
chain 1: DVQMTQSPSNLAASPGESVSINCKASESISKYLAWYLQKPGKANKLLMYDGSTLQSGIPSRFSGSGSGTDFTLTIRSLEPEDFGLYYCQQHYEYPATFGSGTKLEIKGGGSGGGGQVTLKESGPGILQPSQTLSLTCSFSGFSLRTSGMGVGWIRQPSGKGLEWLAHIWWDDDKRYNPALKSRLTISKDTSSNQVFLKIASVDTADTATYYCAQINPAWFAYWGQGTLVTVSSLGGCGGGSRTVAAPSVFIFPPSDEQLKSGTASVVCLLNNFYPREAKVQWKVDNALQSGNSQESVTEQDSKDSTYSLSSTLTLSKADYEKHKVYACEVTHQGLSSPVTKSFNRGEC
chain 2: not shown
notes: also called Ig DART 1; Ig DART 2
B7: binds [12]; binds (mCD32B (murine CD32B)).

B8: h3G8 CMD (covalent monospecific diabody, construct 3) (other)
chain: DIVMTQSPDSLAVSLGERATINCKASQSVDFDGDSFMNWYQQKPGQPPKLLIYTTSNLESGVPDRFSGSGSGTDFTLTISSLQAEDVAVYYCQQSNEDPYTFGQGTKLEIKGGGSGGGGQVTLRESGPALVKPTQTLTLTCTFSGFSLSTSGMGVGWIRQPPGKALEWLAHIWWDDDKRYNPALKSRLTISKDTSKNQVVLTMTNMDPVDTATYYCAQINPAWFAYWGQGTLVTVSSLGGC
modifications: covalent homodimer; interchain disulfide through the C-terminal LGGC cysteines
notes: covalent homodimer diabody; also called h3G8 diabody
With B8 the Kd [13] was 18 nM.
